Measured values published in a protein production outcome set (Wang et al. 2014).

Experiment: label from the status in PepcDB records

Row | Sequence | protein production
1 | MGKIHELSSVLADQIAAGEVVERPASVVKELVENAVDAHATQVDILVQESGVQSIRVIDDGDGIDDAEVLTAFKRHATSKITSREDLFRVHSLGFRGEALPSIASVADVVMNTSTGATGTSIHYRGGKLLQQSPAPLRQGTDITVTDLFFNTPARLKYLKSPQTELANILDVVNRIALSYPAVAFRLVHNAKELLKTAGRGDLQQVIAGIYGVQNARKMVAIQGSTTDFKLSGFVALPELTRASRQYITVLINGRAIKNQQLTKAVIKGYGSKLMVGRYPIAVIALTMDPLLVDVNVHPTKQEVRLSKEPELAKLVSTTITDRLVDVNLIPSALTNLGSHRREHLNTDQLAMDLNAVSSQYQVADKTTPASTEQFAASLAAATMQPSSATTMVSTTSAQPSAVNRAAVSAVVPSESAASSANQPIMISHRDELTATPVQAFDQRYQSESGALPFGETAEPLETSTAASAPTSEAPDTERFPQLRYLGQMHGTYLLAEADDGMYILDQHAAQERINYEYYRQAIGEVSADQQNLLVPIILDYPTSDVLKIKEKLPLLAELGIHLESFGGNSFIVHAHPTWFKAGQEEDTIREMIDWLLQDDKLTVAQFREKSAIMMSCKRAIKANHHLDDQQARALLAKLPTCENPFNCPHGRPVTVHFTNSDMERMFKRIQDSHEARD | failed
2 | DIGGITGSFYLNTNALPTNADKIKSLILEVIEQCQIKSDDVVLYGCSKGGTAAVYHGLTNNYKIVAV | failed
3 | MSGVRFPSGSLKDVRFFLHLFFSSKYGIIYVRYLDEEGTIMKQIIISVGREFGSGGHIVAQKLAEHYDIPIFNKELLEEMARKEGYSEKALEKYDEKPVNFGFMPLPYAGGNIPIEQEIAMKQFEFIKNKADAGESFVIVGRCADEILAYNPNLVSVFITGDRESKIARVMDREGLDRKQAINKMKRMDKIRKTYHNFYCRNKWGDSRGYDICINTGKTDFDTAKNMVVECVDKLKERSE | failed
4 | MTFSAPAPTQLDPVVRHLYVHVPFCPSICPYCDFHVLTRQAGLVERYLERLEQEAAELAAAYAVDLDTVYLGGGTPSFLRDHELRALVESVQRHLGWGRAENTLEINPGTVSTERAALWRSLGFDRASVGVQSLDDATLKFLGRRHDARQARDAVSRLIAQDFRVSGDLITAVPGQPLDSDIHGLVELGVGHVSAYTLTIEPGTEFARRGVQVDEDAEREGFERTEELLAGHGFSRYEVSNYARAGQESRHNLSYWQGKTYLGLGPGAAGHYPVPTPGADALTLRRTNPHLHDWLVGQQGETLLVDPHEYVTDALFMGLRLRRGLDLADLTRRSGVDVAGRYGLVIERQVRLGLLEHSGTNLRATAQGWWVLNRIVREFMEVDAAETA | failed
5 | MQLINLRYISNWRVLLIAVVVLLCLLLSSQLGVVKPYEIVDPLDILGEGSTLFLTILIVIFMVTDRPRGNVTNLFYSGGLLLIFSMTLDVLDEFFRYPDALRLLSWLESFPLPVGLIIISFAAAEWRRENKMLSRQLMVREKNLRSHQWVDPLTSLYTTPYFIKLVEREIALQNSTDAESTVLVSVNFKNFAQYNHEMGTKAGDELLHQASELMVLLLRPQDCLCREHSDHFLILLPQTRLSQADRLMKVIAQNLNSELELPNYMSVEVHTHRVEELSAVDAITALHTQVEEMTHYAPLAN | failed
6 | MICFIKTLFVKIKRKKTSYVTFFLMPILTTLLALSLSFSNNNQAKIGILDKDNSQISKQFIAQLKQNKKYDIFTKIKKEHIDHYLQDKSLEAVLTIDKGFSDKVLQGKSQKLNIRSIANSEITEWVKAQTNYLLENYNIIGDVALGNEDTFNRILQKNQQLNYDVKQVTLTDRSRSKAVSSTTTGFLLILMLGSTSVIYSGILADKSSQLYHRLMLSNLSRFRYMLSYVCVGFVAFTIQIVIMLSLLKVFNISFFVPTSLLLIIFFLFSLLAIGFGLLIGAITQNSQQSSQLANLIVMPTSMLAGCLWPLSITPSYMQAIGKLLPQNWVLSAIAIFQSGGTLSQAWPYLLALMGTALALISFSSLLLKPTKL | failed
7 | MNSPHMDYALAPRASGPASWLETFLVTALVIGVGLWLAPEDPLQVQGEFPWSVLAPLLLGVRYGFVRGLISASLLVAAFFALRHSGLASYAQVAPSYIVGVLVCGMLVGEVRDLWERRLLRLQMANEYRQYRLDDFTRAHQILRVSHDRLEQRLAGSDQSLRSSLLGLRDRLRAAPNGGDPLSLLAEPVLTLLGQYGSLRVAGLYRVEQGASAAPQLSLLASIGTMGPLDSQDLLVRMCLEREELVSVREELLDSGAQASVSSLQACVPLVDTQGQVLAILAVRQMPFFAFQERTLSLLALLAGHIADLLHPDPQVLQLQSADAQHFTRQLKRSLVDVERHGLSGCLYAFELTQPNDELARLFERSQRGLDLHLSLANARGHELLLVLLPLTSAEGAQGYLARLGKLVHEHFGMSVELAGLGVKVLPYDLESARQRDGLRNYLYNECGLNDQQVAV | failed
8 | MLKQEKIYLVEDDTTIVNLLKNHLGQHYQVKSVDNFRAILQEVKEFKPDLILMDITLPYFNGFYWTTEIRKSMTMPIIFISSADEEMNAVMAMNMGGDDFLSKPFSLPILDAKIAAFLRRANEFTKQGHQIEEFELTLDGVFSNLERQETIQLTPTETKILSLLIDYKGEVVTKEALLNRLWEGEEFIDQNTLSVNMTRLRKKVLSVSFDKIHTVRGVGYLIK | failed
9 | TDYDNREKSADIALLKEMNSLRDIIENNSDWIWEVDVAGRYTFSSAKSIELLGRLPHEVIGKTPFDFMPKDEAHRVGKLFAEIAAERIPFAGLQNRNIRADGSEVLIESSGIPLFDHNGEFKGYRGIDRN | failed
10 | MTTTASQEAFLQAFHAEYPAVTAEAFGRGHAPDGRSSYEILCDRVAGSMRVLDLGCGDGLLLEFLARRSGRQLAGVDLSPHSLALARRRPALSEAKLEEGRAQELPFADDSFDACVSHMALMLMSEIEQVASEVARVLSPGGVLACVVGGGAVGGEAYERFLALLRCTIEETPASQRIPALGDKRTRSREGLDEVLGPAGFTAVDWETVPIDLSAPGEQVWAAVSSLYDLGPLDRATLDRLREAFFAEVRDMTTSEGHVPCAFKIHLATARLR | failed
11 | MFNQLVKVIPNLFTIGNLLCGVFSITLNMSEYLGAASILIFFSAVLDFLDGRIARKLKVNSEFGVELDSLADIVSFGVAPALLFHTIATPSILTSLAFILFPTMGALRLAKFSIKPTIGYFKGLPIPAAGLSLAGMALFSYSNAWITLILALLMVSPIRFKKF | not failed
12 | MGSSHHHHHHSSGLVPRGSHDSAQSDLKEVMVLNATESFVYEPKEQKKMFHATVATENEVFRVKVFNIDLKEKFTPKKIIAIANYVCRNGFLEVYPFTLVADVNADRNMEIPKGLIRSASVTPKINQLCSQTKGSFVNGVFEVHKKNVRGEFTYYEIQDNTGKMEVVVHGRLTTINCEEGDKLKLTCFELAPKSGNTGELRSVIHSHIKVIKTRK | not failed
13 | MTIPKLSPSPESYPESLTFAELGLNAALRKALPTRLKHPTRVQQLAIPAILAGRDLLALSQTGSGKTFAFGLPLLQILWQQIAVQTTAKSVPAAKPLALVLVPTRELALQVSEALHALASQLSTSAPLNIQLLCGGVALEQQLADLSAKPQLVVATPGRLLDLCTQSHISLDAIKHLVLDEADRLLEMGFWPDMQKLMAMMPKRKQTLLFSATLPEALDSLAGKLLTNDPLKVEASTRNAVVGEIEEQLYLVNKGSKAQALIALLKQYQWPQVLVFISARDDADAIAKRLVKAGINAAALHGEKDQTVRSQTLADFKADRIQVLVATDLMARGIHVDALPVVINLDLPTSAPVYVHRIGRTARAGAKGLAISLVCHGEMPNLTAIRNLTARALPLVFLADFPVTDKPSEKIIDGAENKVIPKRPPRDKQANRRSINKHSVKAFKGKR | failed
14 | MAPKDQAADMDYDQTKKMVVDILKTDDGKKAIKELLNDDAMNEALVIDQDAIKGTIEKTLTSKKGEEFWKNIFEDTDFAEGFAKTLQTEHEKVIKKLMKDPDYQKMLMSVMQDPGMDKKYSQLAKSQEFRSYLEEVINETLSSPLYKKQFEDELKKAAKDTAKESELEHHHHHH | not failed
15 | MEESDVLISLIEILKIHQKVIDYDKFKDPEDYTPAIRSLATLELMFEYLIKESNTIFENAAVIVYTIVAKHPFFNGNKRTGYEAMNFIIEDGGYGFTSTDEEMIEFIIRVATTENEMSIEEIKEWIIRHTEKILLEHHHHHH | not failed
16 | MQVQELVGIVPWNFIATICNLFIQVYLIKRFLFKPVNEMLEKRRAKADAEIQDAVKAKEEAEVMKAEYEKNMQEAKEKANDIVLTAQKTAAVQSEEMLKEASSQVTAMKEKAEKDIAQERRKAVNEIKGEIGGMAVEIAGKVIEREINEEDHTKLINDFIENVGEAS | not failed
17 | MSRTTPYRLDDQIGFILRQANQRYAALFANGIGNGLTPTQWAALVRLGETGPCPQNQLGRLTAMDAATIKGVVERLDKRGLIQRSADPDDGRRLLVSLSPAGRAELEAGLAAAREINRQALAPLSLQEQETLRGLLARLI | not failed
18 | MCVHTRKPDGLHPKPVSHCPVIDTGQSEWRSFTFTTICMGFRPRQAYRQPSPIANETENTMSNSNIQQEAQDIHDQLPESVDASPEDIEERLTTLVDDYRVPLDEAQRSVVSTYLSDSDVDRDDVSSENENQQVDLEEITEAEQWVDITAKVADLWEPRSDSIAQVGLLGDETGTIKFTKWAKSDLEALTEGQVYRLGNVVTDEYQGQYSVKLNRTTTIEALDQDIEVGDDTTDAEGALVDIQSGSGLIKRCPEDDCTRVLQNGRCSEHGEGEGEFDLRIKGVIDNGDTVQEVIFDKEATEQVADITLAQAQEMAMDALDTSVVADEIREVTLGRYYRVQGPELGRYLLVNEFEQLAEMHDPEQLLITARSILEHHHHHH | not failed
19 | MAHIFVYGTLKRGQPNHKVMLDHSHGLAAFRGRGCTVESFPLVIAGEHNIPWLLYLPGKGHCVTGEIYEVDEQMLRFLDDFEDCPSMYQRTALQVQVLEWEGDGDPGDSVQCFVYTTATYAPEWLFLPYHESYDSEGPHGLRYNPRENR | not failed
20 | MPVLVASDLDRTLIYSAAALGLTMPDLRAPRLLCVEVYESKPLSYLTETAAQLLTDLGDSALFVPTTTRTRKQYQRINLPGPAPKYAICANGGHLLVDGVSDPGWHARVTARLADECASLAEVRDHLTNTADPLWVRKHRVAEDLFAYLVVERDLLPQDWVKELAVWAENRGWTVSLQGRKIYAVPKPLTKSAAMHEVARRTGAELTLAAGDSLLDADLLLAADRGWRPGHGELADSGWTAPTISALPERGVLAGERILREFLRAVRPAR | failed
21 | MIYYLIGVALFIFMLEQLVPGWKLPKVSTWVARVIFLNIVQVSIALLAGITWNKWMMGHSLLHTSDALPPLLAGFAAYFVNTFVTYWWHRARHANDTLWRLFHQLHHAPQRIEVFTSFYKHPTEMVFNSLLGSFVAYVVMGISIEAGAYYIMFAALGEMFYHSNLRTPHVLGYLFQRPEMHRIHHQRDRHECNYSDFPIWDMLFGTYENPRRIDEPQGFAGDKEQQFVDMLLFRDVHSLPGKTQPAPVLVKPDVR | failed
22 | MRTLLITGPGGSGRTTVAAATALRASRTGTRTLVLSADRTDTLGAALGVPTGGAPVEAAPGLTAWRPDAADRFRADLTAFQDRAATALDFLGAARLDAEELTPLPGAEELALLRALRDAALSEAYDLLVVDLPPAPQALALLALPEELRRYLRRLLPPERQAARALRPVLGRLAGVPMPADWLYETAARWDVELAAVEAVVEDRATTVRLVAEPGPAGADAVRAAATGFALRAVRIDTLIANRLLPEEADDAWSAGLAAQQRKFLEEWRGEYRLHELPHLGHDPRGADDLAALAVPGVNDAPGPVEWSVADRLADDGVLVWHIPLPGAIRDELDLLRRGDELVVTAGQFRRIVPLPSALRRCTVAGAALREGELRIRFAPDPDLWPRERLEHHHHHH | not failed
23 | MAQNKNLNLELSLSQYVEDDPWVLKKKLSDSDLYYSAQLYLPKQEMEHFVLPEMDHDLVRKLGAGVEVKVRDVDSVDDFYTVRLKVRNGQYYLGKGWGLIKNAKVLNTGDHIGLFWDKLTREVKFKHFKSQSITMHREAGTTSTQKNVLQKK | failed
24 | MSAKSPTPQPPYEIPSFRKRRLITTGLLTITTLWFIYFYVDLVSATTLLTLPVIIAAPLIMVYIWYHEFTYYARVRKNNKLYKALYGHLQNHQHPENTDTPPM | failed
